Measurements from article PMC7504222.

Target: C-X-C motif chemokine receptor 4 (CXCR4) (human (endogenous in primary CD4+ T cells)) (UniProt P61073)
Chain of UniProt P61073 (P61073 whole entry): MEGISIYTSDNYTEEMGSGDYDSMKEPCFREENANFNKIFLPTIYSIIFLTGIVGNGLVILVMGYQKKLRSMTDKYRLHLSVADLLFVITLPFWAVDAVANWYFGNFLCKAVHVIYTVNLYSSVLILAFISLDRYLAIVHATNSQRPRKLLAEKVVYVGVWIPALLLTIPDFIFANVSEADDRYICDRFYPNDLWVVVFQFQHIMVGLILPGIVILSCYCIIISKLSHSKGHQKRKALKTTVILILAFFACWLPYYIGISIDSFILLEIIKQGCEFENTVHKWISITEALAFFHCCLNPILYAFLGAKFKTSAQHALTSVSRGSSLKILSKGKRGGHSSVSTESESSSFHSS

For “stromal cell-derived factor-1 (SDF-1) (from UniProt P48061 22-93) (ligand)”, the median fluorescence intensity of MitoTracker Deep Red-labelled mitochondria on CD4+ T cells after 2 h co-culture, with 20 µg/mL blocking SDF-1 Ab; flow cytometry was 21.1 and the median fluorescence intensity of MitoTracker Deep Red-labelled mitochondria on CD4+ T cells after 2 h co-culture, without SDF-1 Ab; flow cytometry was 44.8.
